In paper PMC2254190, “T Cell Receptor Engagement Triggers Its CD3ε and CD3ζ Subunits to Adopt a Compact, Locked Conformation” (PLoS ONE, 2008):

Target: SH3.1 domain of Nck (NMR work, in preparation) (UniProt P16333 2-61)
Test: not stated; affinity told in the discussion without method

Kd: ~100 nM
B1: CD3ε polypeptide (NMR work, in preparation) (domain or fragment)
chain: KNRKAKAKPVTRGAGAGGRQRGQNKERPPPVPNPDYEPIRKGQRDLYSGLNQRRI
modifications: The construct is not described (unpublished NMR work, 'in preparation'). The whole cytoplasmic tail, by UniProt topology, is used because it holds the PPS with its upstream and downstream charged …
